The RNAGym collection of RNA variant scans (doi:10.1021/acssynbio.7b00057)

B1: Pistol ribozyme (parent)
chain: GGGUCGUUGUUCCAUAAUCGCGUGGAUAUGGCACGCAAGUUUCUACCGGGCACCGUAAAUGUCCGACUGGAGCCGUUCGGGCGGCUAUAAACAGACCUCAGGCCCGAAGCGUGGCGGCACCUGCCGCCGGUGGUAAAAAAGAUCGGAAGAGCACACGUCU

Variants of: B1
Experiment: aptazyme ON/OFF ratio, guanine; higher = stronger switching; co-transcriptional cleavage with and without guanine

| Variant | aptazyme ON/OFF ratio |
| --- | --- |
| U7A U8A G9C U11C C13A | 1.08 |
| U7A U8A G9C U11C C13G | 1.07 |
| U7A U8A G9C U11C C13U | 1.07 |
| U7A U8A G9C U10G U11C C13A | 1.09 |
| U7A U8A G9C U10G U11C C13U | 1.04 |
| U7A U8A G9C U10G U11C C13G | 1.04 |
| U7A U8A G9U U10A C12U C13A | 1.05 |
| U7A U8A G9U U10A C12U C13U | 1.13 |
| U7A U8A G9U U10A C12U C13G | 1.23 |
| U7A U8A G9C U10C U11G C12A C13U | 1.03 |
| U7A U8A G9C U10C U11G C12A C13A | 0.981 |
| U7A U8A G9C U10C U11G C12A C13G | 1.03 |
| U7A U8A G9C U10A U11A C12G | 1.27 |
| U7A U8A G9C U10A U11A C12U | 1.19 |
| U7A U8A G9C U10A U11A C12A | 1.13 |
| U7A U8A G9C U10A U11A C12U C13G | 1.18 |
| U7A U8A G9C U10A U11A C12U C13U | 1.13 |
| U7A U8A G9C U10A U11A C12U C13A | 1.2 |
| U7A U8A G9C U10C C12A C13A | 1.04 |
| U7A U8A G9C U10C C12A C13U | 1.04 |
| U7A U8A G9C U10C C12A C13G | 1.04 |
| U7A U8A G9C U10C U11G C12G C13G | 1.08 |
| U7A U8A G9C U10C U11G C12G C13U | 1.08 |
| U7A U8A G9C U10C U11G C12G C13A | 1.1 |

| Variant | aptazyme ON/OFF ratio |
| --- | --- |
| U7A U8A G9C U10C U11C C12U C13G | 1.02 |
| U7A U8A G9C U10C U11C C12U C13A | 1.01 |
| U7A U8A G9C U10C U11C C12U C13U | 1.05 |
| U7A U8A G9C U10C U11C C12A C13A | 1 |
| U7A U8A G9C U10C U11C C12A C13U | 1.02 |
| U7A U8A G9C U10C U11C C12A C13G | 1.01 |
| U7A U8A G9C U10A U11G C12U C13G | 1.11 |
| U7A U8A G9C U10A U11G C12U C13A | 1.17 |
| U7A U8A G9C U10A U11G C12U C13U | 1.14 |
| U7A U8A G9C U10G U11G | 1.66 |
| U7A U8A G9C U10G U11A | 1.06 |
| U7A U8A G9C U10G U11C | 1.1 |
| U7A U8A G9C U10A U11A C13G | 1.09 |
| U7A U8A G9C U10A U11A C13U | 1.27 |
| U7A U8A G9C U10A U11A C13A | 1.23 |
| U7A U8A G9C U10A U11G C12G C13A | 1.18 |
| U7A U8A G9C U10A U11G C12G C13G | 1.25 |
| U7A U8A G9C U10A U11G C12G C13U | 1.14 |
| U7A U8A G9U U10A U11G C12A | 1.07 |
| U7A U8A G9U U10A U11G C12U | 1.46 |
| U7A U8A G9U U10A U11G C12G | 1.19 |
| U7A U8A G9C U10G U11G C12G | 1.56 |
| U7A U8A G9C U10G U11G C12A | 1.76 |
| U7A U8A G9C U10G U11G C12U | 1.39 |

| Variant | aptazyme ON/OFF ratio |
| --- | --- |
| U7A U8A G9U U10A U11A C12U C13G | 1.22 |
| U7A U8A G9U U10A U11A C12U C13U | 1.22 |
| U7A U8A G9U U10A U11A C12U C13A | 1.2 |
| U7A U8A G9C U11A C12G | 1.19 |
| U7A U8A G9C U11A C12U | 1.2 |
| U7A U8A G9C U11A C12A | 1.22 |
| U7A U8A G9C U10G U11A C12G C13G | 1.21 |
| U7A U8A G9C U10G U11A C12G C13U | 1.13 |
| U7A U8A G9C U10G U11A C12G C13A | 1.26 |
| U7A U8A G9U U10A U11C C12U C13A | 1.06 |
| U7A U8A G9U U10A U11C C12U C13U | 1.21 |
| U7A U8A G9U U10A U11C C12U C13G | 1.05 |
| U7A U8A G9U U10A U11G C12A C13G | 1.12 |
| U7A U8A G9U U10A U11G C12A C13A | 1.07 |
| U7A U8A G9U U10A U11G C12A C13U | 1.18 |
| U7A U8A G9C U10G U11C C12A C13A | 1.19 |
| U7A U8A G9C U10G U11C C12A C13U | 1.23 |
| U7A U8A G9C U10G U11C C12A C13G | 1.08 |
| U7A U8A G9C U10A U11G C12A C13A | 1.07 |
| U7A U8A G9C U10A U11G C12A C13U | 1.08 |
| U7A U8A G9C U10A U11G C12A C13G | 1.18 |
| U7A U8A G9C U10G C12A | 1.1 |
| U7A U8A G9C U10G C12G | 1.33 |
| U7A U8A G9C U10G C12U | 1.41 |

| Variant | aptazyme ON/OFF ratio |
| --- | --- |
| U7A U8A G9C U11G C12G C13A | 1.31 |
| U7A U8A G9C U11G C12G C13G | 1.32 |
| U7A U8A G9C U11G C12G C13U | 1.16 |
| U7A U8A G9U U10A U11A C13G | 1.07 |
| U7A U8A G9U U10A U11A C13A | 1.23 |
| U7A U8A G9U U10A U11A C13U | 1.27 |
| U7A U8A G9C U10A C12G C13A | 1.15 |
| U7A U8A G9C U10A C12G C13U | 1.16 |
| U7A U8A G9C U10A C12G C13G | 1.13 |
| U7A U8A G9C U11C C12U C13A | 1.13 |
| U7A U8A G9C U11C C12U C13U | 1.08 |
| U7A U8A G9C U11C C12U C13G | 1.11 |
| U7A U8A G9C U10G U11C C12U C13U | 1.24 |
| U7A U8A G9C U10G U11C C12U C13G | 1.19 |
| U7A U8A G9C U10G U11C C12U C13A | 1.15 |
| U7A U8A G9U U10C C12U C13A | 1.19 |
| U7A U8A G9U U10C C12U C13G | 1.15 |
| U7A U8A G9U U10C C12U C13U | 1.43 |
| U7A U8A G9C U10A U11A C12G C13G | 1.23 |
| U7A U8A G9C U10A U11A C12G C13A | 1.18 |
| U7A U8A G9C U10A U11A C12G C13U | 1.19 |
| U7A U8A G9U U10A | 1.25 |
| U7A U8A G9U U10C | 2.34 |
| U7A U8A G9U U10C C12G | 1.43 |

| Variant | aptazyme ON/OFF ratio |
| --- | --- |
| U7A U8A G9U U10C C12U | 1.24 |
| U7A U8A G9U U10C C12A | 1.17 |
| U7A U8A G9C U10A U11A | 1.21 |
| U7A U8A G9C U10A U11C | 1.04 |
| U7A U8A G9C U10A U11G | 1.24 |
| U7A U8A G9U C12A C13U | 1.52 |
| U7A U8A G9U C12A C13A | 1.25 |
| U7A U8A G9U C12A C13G | 1.25 |
| U7A U8A G9U C12G C13A | 1.19 |
| U7A U8A G9U C12G C13G | 1.27 |
| U7A U8A G9U C12G C13U | 1.47 |
| U7A U8A G9C U11A C12U C13G | 1.14 |
| U7A U8A G9C U11A C12U C13U | 1.2 |
| U7A U8A G9C U11A C12U C13A | 1.1 |
| U7A U8A G9C U10C U11C C12A | 1.05 |
| U7A U8A G9C U10C U11C C12U | 1.02 |
| U7A U8A G9C U10C U11C C12G | 1.05 |
| U7A U8A G9C U10A U11C C12A C13A | 1.12 |
| U7A U8A G9C U10A U11C C12A C13G | 1.12 |
| U7A U8A G9C U10A U11C C12A C13U | 1.2 |
| U7A U8A G9C U11A C12G C13U | 1.21 |
| U7A U8A G9C U11A C12G C13A | 1.15 |
| U7A U8A G9C U11A C12G C13G | 1.2 |
| U7A U8A G9C U10G C12A C13A | 1.18 |

| Variant | aptazyme ON/OFF ratio |
| --- | --- |
| U7A U8A G9C U10G C12A C13G | 1.09 |
| U7A U8A G9C U10G C12A C13U | 1.27 |
| U7A U8A G9C U10C U11G C13U | 1.05 |
| U7A U8A G9C U10C U11G C13G | 1.05 |
| U7A U8A G9C U10C U11G C13A | 1.06 |
| U7A U8A G9U U10A U11C C13U | 1.01 |
| U7A U8A G9U U10A U11C C13G | 1.1 |
| U7A U8A G9U U10A U11C C13A | 1.08 |
| U7A U8A G9C U10A U11C C13U | 1.04 |
| U7A U8A G9C U10A U11C C13G | 1.05 |
| U7A U8A G9C U10A U11C C13A | 1.07 |
| U7A U8A G9C U10A C12U C13U | 1.04 |
| U7A U8A G9C U10A C12U C13A | 1.09 |
| U7A U8A G9C U10A C12U C13G | 1.1 |
| U7A U8A G9C U11G C12U C13G | 1.23 |
| U7A U8A G9C U11G C12U C13U | 1.09 |
| U7A U8A G9C U11G C12U C13A | 1.37 |
| U7A U8A G9C U11A C13A | 1.21 |
| U7A U8A G9C U11A C13U | 1.17 |
| U7A U8A G9C U11A C13G | 1.06 |
| U7A U8A G9C U10G U11C C12A | 1.81 |
| U7A U8A G9C U10G U11C C12U | 1.13 |
| U7A U8A G9C U10G U11C C12G | 1.27 |
| U7A U8A G9C U10G C13U | 1.56 |

| Variant | aptazyme ON/OFF ratio |
| --- | --- |
| U7A U8A G9C U10G C13A | 1.24 |
| U7A U8A G9C U10G C13G | 1.29 |
| U7A U8A G9C U10C U11G | 0.815 |
| U7A U8A G9C U10C U11A | 0.719 |
| U7A U8A G9C U10C U11C | 0.984 |
| U7A U8A G9C U10G C12U C13A | 1.22 |
| U7A U8A G9C U10G C12U C13G | 1.19 |
| U7A U8A G9C U10G C12U C13U | 1.32 |
| U7A U8A G9C U10G U11A C12A C13G | 1.12 |
| U7A U8A G9C U10G U11A C12A C13A | 1.17 |
| U7A U8A G9C U10G U11A C12A C13U | 1.2 |
| U7A U8A G9C U10G U11G C12U C13G | 1.15 |
| U7A U8A G9C U10G U11G C12U C13A | 1.17 |
| U7A U8A G9C U10G U11G C12U C13U | 1.18 |
| U7A U8A G9U U10A C13A | 1.43 |
| U7A U8A G9U U10A C13U | 1.24 |
| U7A U8A G9U U10A C13G | 1.08 |
| U7A U8A G9C U10C U11G C12U | 1.08 |
| U7A U8A G9C U10C U11G C12A | 1.07 |
| U7A U8A G9C U10C U11G C12G | 1.09 |
| U7A U8A G9C U10G U11A C12U C13A | 1.11 |
| U7A U8A G9C U10G U11A C12U C13G | 1.13 |
| U7A U8A G9C U10G U11A C12U C13U | 1.1 |
